Laboratory results taken from PMC5517481 (2017).

B1: R11.1.6 expressed on the surface of yeast (designed binder)
chain: ATVKFTHQGEEKQVDISKIKWVIRWGQYIWFKYDEDGGAKGWGYVSEKDAPKELLQMLKKR
B2: SUMO-R11.1.6 fusion protein (designed binder)
chain: B1 chain

How the values were obtained:
His6-SUMO-K-Ras WT [1] = target: T1, His6-SUMO-K-Ras WT (human, UniProt P01116-2 1-166); experiment: FACS; GppNHp-loaded
His6-SUMO-K-Ras WT [2] = target: T1, His6-SUMO-K-Ras WT; experiment: FACS; GDP-loaded
[3] = target: K-Ras WT (G domain, residues 1-166) (human, UniProt P01116-2 1-166, biotinylated for BLI (site not stated)); experiment: BLI; GppNHp-loaded
[4] = target: H-Ras WT (G domain, residues 1-166) (UniProt P01112 1-166, biotinylated for BLI (site not stated)); experiment: BLI; GppNHp-loaded
[5] = target: N-Ras WT (G domain, residues 1-166) (UniProt P01111 1-166, biotinylated for BLI (site not stated)); experiment: BLI; GppNHp-loaded

Row | Binder | Kd (His6-SUMO-K-Ras WT [1]) [nM] | Kd (His6-SUMO-K-Ras WT [2]) [nM] | Kd [3] [nM] | Kd [4] [nM] | Kd [5] [nM]
1 | B1 | 50.3 | 2.8 | – | – | –
2 | B2 | – | – | 41 | 10 | 7
